Patent US20260043816A1

Columns and labels:
[1] = target: peptides 11 and 23 (human); assay: pairing sandwich ELISA, antibody coated as capture, target titrated
[2] = target: peptides 11 and 23 (human); assay: pairing sandwich ELISA, biotinylated antibody as detector, target titrated

B1: ACI-8070-942.30D12-Ab1 (antibody, V domains shown)
VH: DVQLVESGGGLVQPGGSRKLSCEASGFTFSSIGMHWVRQAPEKGLEWVAYITSGSSTIYYADTVKGRFTISRDNPKNTLFLQMTSLRSEDTAIYYCAGSGPGTDYWGQGTTLTVSS
VL: DIKMTQSPSSMYASLGERVTITCKASQDINSYLSWFQQKPGKSPKTLIYRANRLVDGVPSRFSGSGSGQDYSLTISSLEYEDMGIYYCLQYDEFPLTFGAGTKLELK
EC50 [1]: 0.904 nM
EC50 [2]: 0.056 nM
